Experimental findings from the supplement of paper PMC10567573 are described below.

A short description of the series: protein stability index of a GFP-peptide fusion (GPS, HEK-293T) (PSI 1-6); higher = more stable.
Setting [1] is: treatment: DMSO, c terminus: a fixed tail appended.
The mark [2] stands for this setting: treatment: MLN4924 1 uM, 8 h, c terminus: a fixed tail appended.
Setting [3] is: treatment: DMSO, c terminus: native.
The mark [4] stands for this setting: treatment: MLN4924 1 uM, 8 h, c terminus: native.

± gives the standard deviation.
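Further: 24-mer peptide tiles fused after GFP, lentivirally expressed, FACS-sorted into six equal bins by GFP/DsRed ratio, decoded by Illumina sequencing, PSI is the read-weighted mean bin number.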

In turn, EIKLVSDVTADSKVLEALKLKGAE [PLD5] registered a protein stability index under setting [1] of 4.31 ± 0.41 and a protein stability index under setting [2] of 4.34 ± 0.51. Regarding EKAFSYRQMAFDFARVKKGADGVM [SNAP91], the protein stability index by setting is: under setting [1], 2.67 ± 0.16; under setting [2], 2.86 ± 0.31.

Regarding EKQELHRNMLGLLGNVAEVKELRP [ZER1], the protein stability index reads like this: under setting [1], 3.74 ± 0.16; under setting [2], 4.04 ± 0.31.

As for ELAEHRCHPVERGIKSKEAEEYRL [PSD2], the protein stability index under setting [1] turned out to be 4.89 ± 0.25 and the protein stability index under setting [2] turned out to be 4.64 ± 0.36. For the sequence ELDAIIEEVDEDGSGTIDFEEFLV [TNNC2], the protein stability index runs as follows: under setting [1], 4.4 ± 0.22; under setting [2], 4.33 ± 0.23.

In the case of ELERAQHELLLGSLQQQHQADLEL [FBF1], the protein stability index is, setting by setting: under setting [1], 4.15 ± 0.21; under setting [2], 4.49 ± 0.28. For the sequence ELGKGAFSVVRRCMKIPTGQEYAA [CAMK2D], the protein stability index is 2.46 ± 0.21 under setting [1] and 2.2 ± 0.29 under setting [2]. For the sequence ELKLGRKVPESLVRSLRGEEPVPR [LURAP1L], the protein stability index reads like this: under setting [1], 3.85 ± 0.25; under setting [2], 4.16 ± 0.33. For ELREACDYLCISFEYSTIKCRDLS [BTBD10], the protein stability index by setting is: under setting [1], 3.06 ± 0.21; under setting [2], 3.13 ± 1. ELWIYNMETGRWKKINTEGDVPPS [KLHDC2]: the protein stability index was 3.43 ± 0.2 under setting [1] and 3.61 ± 0.27 under setting [2].

As to EMEEELRYAPLSFRNPMMSKLRNY [VTI1B], the protein stability index by setting is: under setting [1], 2.78 ± 0.28; under setting [2], 3.01 ± 0.25. On the same counts, the results for EMRFAKMPDEPVEAPALPAPAAPM [BRD3] are 4.66 ± 0.078 and 4.8 ± 0.24. On to ENHPQESKGQPRSQEESEEGEEDA [CHGB], for which the protein stability index is, setting by setting: under setting [1], 5.79 ± 0.094; under setting [2], 5.64 ± 0.22. On to EPPKPTFPAYTQSTASTTSTTNST [ZNF207], for which the protein stability index by setting is: under setting [1], 5.39 ± 0.3; under setting [2], 5.04 ± 0.21.

As to EPSELDNPFQDPAVIQHRPSRQYA [SCAMP3], the protein stability index by setting is: under setting [1], 4.67 ± 0.22; under setting [2], 4.77 ± 0.13.

Consider EQLSGAGYRVSAALEEADKMFLRT [EID1], for which the protein stability index is, setting by setting: under setting [1], 3.72 ± 0.22; under setting [2], 4.1 ± 0.43. On the same counts, the results for ERCSDSDEEKKARRGRSPKGEFKD [CLINT1] are 5.43 ± 0.27 and 5.3 ± 0.51. EREKVTPLMVKGFRDAAEEGGTAV [SEPHS2] gave a protein stability index under setting [1] of 5.24 ± 0.18 and a protein stability index under setting [2] of 5.12 ± 0.16. As for ERHTMDLTVEGFQSWMWRGLTFLL [TMEM120A], the protein stability index under setting [1] was determined as 2.11 ± 0.41 and the protein stability index under setting [2] came to 2.28 ± 0.092. As to ERLNKEYQEIFQQLQRSWVKMDQK [TRIM43], the protein stability index by setting is: under setting [1], 3.23 ± 0.3; under setting [2], 3.39 ± 0.55.

On to ERPAQRDCSFPGLPRHQDQPHHQP [TRAF3IP2], for which the protein stability index amounted to 4.72 ± 0.15 under setting [1] and 4.64 ± 0.28 under setting [2]. For the sequence ERQLKVMASDHREALLDRESENAS [LRRC45], the protein stability index is, setting by setting: under setting [1], 5.41 ± 0.3; under setting [2], 5.33 ± 0.18.

Turning to ESDSQGQGNGLFYSSGPQSWYPKA [ZC2HC1C], the protein stability index is, setting by setting: under setting [1], 3.62 ± 0.32; under setting [2], 3.72 ± 0.34. On to ESGDEVPVELYTAFQHTPTSITLT [KMT2E], for which the protein stability index is 2.73 ± 0.97 under setting [1] and 3.65 ± 0.62 under setting [2]. In the case of ESSDDDSEEAPSTSGMGFHAPKIG [SDE2], the protein stability index reads like this: under setting [1], 5.51 ± 0.23; under setting [2], 5.41 ± 0.19. Consider ETDEDEEEGDEQQRLLNTPRRKKL [GMCL1], for which the protein stability index under setting [1] was 5.6 ± 0.3 and the protein stability index under setting [2] was found to be 5.63 ± 0.28. Consider ETELSLRQLVEADINGLRRILDEL [KRT36], for which the protein stability index by setting is: under setting [1], 3.12 ± 0.3; under setting [2], 3.36 ± 0.34. Turning to ETENIIAANHWVLPAAEFHGLWDS [TRIP13], the protein stability index under setting [1] is 3.28 ± 0.29 and the protein stability index under setting [2] stood at 3.36 ± 0.26. Sequence ETPGSAVDYPLHDLVLHTNYTATV [TNXB] yielded a protein stability index under setting [1] of 2.83 ± 0.18 and a protein stability index under setting [2] of 2.87 ± 0.55.

Sequence ETTESQQNGEEGTSTPEDKESGQE [SMARCE1] showed a protein stability index under setting [1] of 5.61 ± 0.18 and a protein stability index under setting [2] of 5.23 ± 0.17. Take EVLDGVEDAEGEEEEEEEEEEEDD [FKBP8]: the protein stability index worked out at 5.46 ± 0.38 under setting [1] and 5.69 ± 0.23 under setting [2]. Take EVREPALRPAKRELRGAEPGRPAR [SPSB4]: the protein stability index is 4.48 ± 0.39 under setting [1] and 4.9 ± 0.22 under setting [2]. Regarding FCIDSENRIGNSGVEEIKGHPFFE [STK38L], the protein stability index turned out to be 2.97 ± 0.58 under setting [1] and 3.03 ± 0.18 under setting [2]. On the same counts, the results for FEGFQAVSLKQEGDDQPSETDHLS [TPRG1] are 5.51 ± 0.17 and 5.54 ± 0.23. FEGMAFLETEQGKPFVSVFRHLRL [GMCL1]: the protein stability index stood at 2.66 ± 0.58 under setting [1] and 2.25 ± 0.31 under setting [2]. Turning to FFFLRMDENYNLLPHGVNFQDAIF [CCDC3], the protein stability index reads like this: under setting [1], 2.79 ± 0.43; under setting [2], 2.97 ± 0.76. FFKGGGSSKSRAAPSPQEALVRLR [CHMP4C] had a protein stability index under setting [1] of 3.26 ± 0.053 and a protein stability index under setting [2] of 3.33 ± 0.052. With FFMTATQYFTNRLDMSQNVSLVTA [SLC29A1], the protein stability index is, setting by setting: under setting [1], 3.04 ± 0.4; under setting [2], 2.92 ± 0.47. As for FFYPLVEDPYMMGRIACANVLSDL [SEPHS2], the protein stability index turned out to be 2.38 ± 0.46 under setting [1] and 2.19 ± 0.47 under setting [2]. On the same counts, the results for FGCEECGKKYNTMLGYKRHLALHA [PLAGL1] are 3.94 ± 0.12 and 3.97 ± 0.27.

FGGQDENKQTLSSGEKYDPDANTW [GAN] had a protein stability index under setting [1] of 5.06 ± 0.074 and a protein stability index under setting [2] of 5.01 ± 0.35.

For the sequence FGHLINGAIAVFVYASDKEWIRFD [PTGFR], the protein stability index turned out to be 3.1 ± 0.29 under setting [1] and 3.1 ± 0.38 under setting [2]. For the sequence FGIKCAKCQVGFSSSDLVMRARDS [ISL2], the protein stability index is 2.37 ± 0.32 under setting [1] and 2.54 ± 0.58 under setting [2]. On to FHINQTLREAHFHSLQHRGRPLT [FAM104A], for which the protein stability index was determined as 2.3 ± 0.45 under setting [3] and 2.2 ± 0.29 under setting [4]. Take FHYLVFDLVTGGELFEDIVAREYY [CAMK2B]: the protein stability index by setting is: under setting [1], 3.21 ± 0.4; under setting [2], 3.05 ± 1. Regarding FKAHKSVLAARSPVFNAMFEHEME [SPOPL], the protein stability index by setting is: under setting [1], 3.17 ± 0.41; under setting [2], 3.17 ± 0.32. As for FKLKPLSNKTATDDTGGKDPRNV [PLD5], the protein stability index turned out to be 4.78 ± 0.17 under setting [3] and 4.89 ± 0.19 under setting [4]. As for FKPKLYKGDRGLPLEGSAKGKVQA [RBBP5], the protein stability index reads like this: under setting [1], 3.96 ± 0.44; under setting [2], 3.98 ± 0.27. On the same counts, the results for FLDLLSVFSDTATPDIKSHYAFRI [CIB1] are 2.86 ± 0.6 and 2.85 ± 0.76. In turn, FLGLFFIVRFLESNWFVWVTQMNH [FADS1] came in with a protein stability index under setting [1] of 3.69 ± 0.72 and a protein stability index under setting [2] of 3.25 ± 0.32. Regarding FLKNTEVSSMECEKNLYWICNKPY [CD69], the protein stability index is 2.32 ± 0.61 under setting [1] and 2.27 ± 0.21 under setting [2]. The sequence FNMMEQKKRVSMILQSPAFCEELE [ADD1] had a protein stability index under setting [1] of 3.27 ± 0.088 and a protein stability index under setting [2] of 3.4 ± 0.11. With FPDLNTYIYYNEKYGGPNHHLPLP [CPN1], the protein stability index worked out at 2.15 ± 0.17 under setting [1] and 2.42 ± 0.096 under setting [2]. As for FPLMTIEEFAAGPAQSGILSDREV [BTBD1], the protein stability index came to 3.83 ± 0.33 under setting [1] and 3.98 ± 0.18 under setting [2]. With FPSLHQSLPQNQCYMATTKSQTAC [EHMT1], the protein stability index was 3.06 ± 0.15 under setting [1] and 3.47 ± 0.2 under setting [2]. On to FQAPCQRCGKFLQDGLPPTWRDFR [MED27], for which the protein stability index reads like this: under setting [1], 2.56 ± 0.72; under setting [2], 2.28 ± 0.33. Take FQGQKTELNNCISMLVAGNDRVQT [TRIM63]: the protein stability index runs as follows: under setting [1], 3.13 ± 0.15; under setting [2], 3.41 ± 0.42. Under setting [2], FQNAERAFKAAALIQRWYRRYVAR [PPEF2] yielded a protein stability index of 5.54 ± 0.23. On to FRALKRPLQFLGLFENSLCRLTHI [ZER1], for which the protein stability index came out at 2.62 ± 0.4 under setting [1] and 2.46 ± 0.54 under setting [2]. Consider FSDLNSTRGDADMYDLPKKEDALL [EMD], for which the protein stability index is 4.77 ± 0.24 under setting [1] and 4.9 ± 0.05 under setting [2]. On the same counts, the results for FSLRVHTGCHKKLGPEARRPRTRW are 2.66 ± 0.28 and 3.06 ± 0.094.

Consider FSVAPHETQTQRGGEFQCGLEAAS [RNF180], for which the protein stability index reads like this: under setting [1], 3.37 ± 0.41; under setting [2], 3.36 ± 0.14. In the case of FTEAMTHFPASPFWSVMFFLMLIN [SLC6A17], the protein stability index turned out to be 2.36 ± 0.23 under setting [1] and 2.14 ± 0.56 under setting [2]. Take FTKNNFFVEKNPTIVNFPITNVDL [USP39]: the protein stability index came to 2.98 ± 0.52 under setting [1] and 2.7 ± 0.29 under setting [2]. On the same counts, the results for FVMFLCLADYLVPILAPRIFGSNK [ARL6IP1] are 3.21 ± 0.48 and 3.17 ± 0.62. For FVQVKGNFARLQTCISELRMLQRE [M1AP], the protein stability index is 2.47 ± 0.75 under setting [1] and 2.11 ± 0.22 under setting [2]. As to FVRGQEFKAHKSVLAARSPVFNAM [SPOPL], the protein stability index by setting is: under setting [1], 2.66 ± 0.45; under setting [2], 2.83 ± 0.34. GACYGDDACFVARHRSADVLGVAD [PPTC7] gave a protein stability index under setting [1] of 4.18 ± 0.34 and a protein stability index under setting [2] of 4.817 ± 0.045.

GAEQPPDLHCVLVTNPHSSQWKDP [GADD45A]: the protein stability index by setting is: under setting [1], 4.29 ± 0.2; under setting [2], 4.44 ± 0.12.

In the case of GAFDSQSTVKDCATIFALSTMTSS [ATL3], the protein stability index was 3.01 ± 0.25 under setting [1] and 3.19 ± 0.27 under setting [2]. For the sequence GAIFCPPCYDVRYAPSCAKCKKKI [PDLIM7], the protein stability index reads like this: under setting [1], 3.16 ± 0.24; under setting [2], 3.45 ± 0.34. For the sequence GARAALNEIESRHRELLRLESRIR [STX11], the protein stability index amounted to 3.46 ± 0.26 under setting [1] and 3.72 ± 0.35 under setting [2].
